Biological target: RXFP1 construct pVL-11 (FLAG-eGFP-M82-S707-Avi) (human) (UniProt Q9HBX9)
Assay: SPR; receptor constructs captured via biotinylated Avi-tag on an SA chip (3000-5000 RU), Biacore T200, 20°C; running buffer 20 mM HEPES pH 7.5, 150 mM NaCl, 0.01% BSA, 0.1% DDM, 0.01% CHS; relaxin injected at 0.41-100 nM; kinetic fits; triplicates

Chain of UniProt Q9HBX9 (Q9HBX9 82-707): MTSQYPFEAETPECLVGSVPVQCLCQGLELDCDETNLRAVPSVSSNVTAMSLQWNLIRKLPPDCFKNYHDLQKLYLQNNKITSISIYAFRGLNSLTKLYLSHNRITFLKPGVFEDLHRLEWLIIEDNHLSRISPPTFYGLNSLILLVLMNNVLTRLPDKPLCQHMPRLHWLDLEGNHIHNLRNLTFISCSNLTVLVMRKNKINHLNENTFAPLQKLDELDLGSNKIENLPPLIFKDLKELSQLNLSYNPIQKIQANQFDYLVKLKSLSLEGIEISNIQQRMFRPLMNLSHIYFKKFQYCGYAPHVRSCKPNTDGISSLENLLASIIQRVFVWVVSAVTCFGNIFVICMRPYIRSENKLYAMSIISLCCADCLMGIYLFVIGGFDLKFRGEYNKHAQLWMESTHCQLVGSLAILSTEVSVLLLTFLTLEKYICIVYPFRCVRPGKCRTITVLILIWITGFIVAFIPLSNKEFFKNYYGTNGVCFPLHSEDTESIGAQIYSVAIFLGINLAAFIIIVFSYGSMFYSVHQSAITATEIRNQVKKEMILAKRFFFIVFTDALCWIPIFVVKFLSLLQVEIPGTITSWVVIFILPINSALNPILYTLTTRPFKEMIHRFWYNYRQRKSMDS

Relaxin H2 (human) (ligand)
Kd: 0.02 µM

— article PMC8832513
